The text below walks through data of patent publication US7002001.

Data set [1] addresses C3 mutant with trp(W) at position 1303 and glutamine at 1320.
For data set [2], the target named is C3 mutant with cys(C) at position 1303 and glutamine at 1320.
Data set [3] concerns the target C3 mutant with tyr(Y) at position 1303 and glutamine at 1320.
Data set [4] deals with wild-type human C3 (expressed from the PC3 coding sequence).
Data set [5] has as its target C3 mutant with gly(G) at position 1303 and glutamine at 1320.
Data set [6] has as its target mutant C3M-51 (Arg1320->Gln).
The target in data set [7] is E1Q2 mutant C3 (Arg1303 changed to Glu, plus Arg1320 changed to Gln).
In data set [8] the target is mutant C3M-26 (Arg1303->Gln, Arg1320->Gln).
The target in data set [9] is mutant C3M-I23 (Arg1303->Gln).
Chain of mutant C3M-I23 (Arg1303->Gln) (chain, as listed by the source, stated change not applied, chain 1 of 2): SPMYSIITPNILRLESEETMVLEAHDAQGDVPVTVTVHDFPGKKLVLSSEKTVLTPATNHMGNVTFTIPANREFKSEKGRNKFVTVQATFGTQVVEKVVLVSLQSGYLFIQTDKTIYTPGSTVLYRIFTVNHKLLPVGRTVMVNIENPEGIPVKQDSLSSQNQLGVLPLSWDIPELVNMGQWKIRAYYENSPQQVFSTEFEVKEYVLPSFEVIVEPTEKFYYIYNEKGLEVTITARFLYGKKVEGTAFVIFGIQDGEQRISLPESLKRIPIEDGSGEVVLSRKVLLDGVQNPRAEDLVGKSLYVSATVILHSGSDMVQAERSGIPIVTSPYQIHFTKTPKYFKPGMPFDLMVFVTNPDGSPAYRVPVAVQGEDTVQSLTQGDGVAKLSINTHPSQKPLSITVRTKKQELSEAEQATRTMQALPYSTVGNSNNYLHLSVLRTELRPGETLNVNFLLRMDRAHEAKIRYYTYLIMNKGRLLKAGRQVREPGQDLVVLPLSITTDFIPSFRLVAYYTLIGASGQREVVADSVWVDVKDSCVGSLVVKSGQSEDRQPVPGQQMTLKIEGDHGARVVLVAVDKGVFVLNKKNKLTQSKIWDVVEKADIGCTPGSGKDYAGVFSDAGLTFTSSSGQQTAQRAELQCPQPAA
Chain of mutant C3M-I23 (Arg1303->Gln) (chain, as listed by the source, stated change not applied, chain 2 of 2): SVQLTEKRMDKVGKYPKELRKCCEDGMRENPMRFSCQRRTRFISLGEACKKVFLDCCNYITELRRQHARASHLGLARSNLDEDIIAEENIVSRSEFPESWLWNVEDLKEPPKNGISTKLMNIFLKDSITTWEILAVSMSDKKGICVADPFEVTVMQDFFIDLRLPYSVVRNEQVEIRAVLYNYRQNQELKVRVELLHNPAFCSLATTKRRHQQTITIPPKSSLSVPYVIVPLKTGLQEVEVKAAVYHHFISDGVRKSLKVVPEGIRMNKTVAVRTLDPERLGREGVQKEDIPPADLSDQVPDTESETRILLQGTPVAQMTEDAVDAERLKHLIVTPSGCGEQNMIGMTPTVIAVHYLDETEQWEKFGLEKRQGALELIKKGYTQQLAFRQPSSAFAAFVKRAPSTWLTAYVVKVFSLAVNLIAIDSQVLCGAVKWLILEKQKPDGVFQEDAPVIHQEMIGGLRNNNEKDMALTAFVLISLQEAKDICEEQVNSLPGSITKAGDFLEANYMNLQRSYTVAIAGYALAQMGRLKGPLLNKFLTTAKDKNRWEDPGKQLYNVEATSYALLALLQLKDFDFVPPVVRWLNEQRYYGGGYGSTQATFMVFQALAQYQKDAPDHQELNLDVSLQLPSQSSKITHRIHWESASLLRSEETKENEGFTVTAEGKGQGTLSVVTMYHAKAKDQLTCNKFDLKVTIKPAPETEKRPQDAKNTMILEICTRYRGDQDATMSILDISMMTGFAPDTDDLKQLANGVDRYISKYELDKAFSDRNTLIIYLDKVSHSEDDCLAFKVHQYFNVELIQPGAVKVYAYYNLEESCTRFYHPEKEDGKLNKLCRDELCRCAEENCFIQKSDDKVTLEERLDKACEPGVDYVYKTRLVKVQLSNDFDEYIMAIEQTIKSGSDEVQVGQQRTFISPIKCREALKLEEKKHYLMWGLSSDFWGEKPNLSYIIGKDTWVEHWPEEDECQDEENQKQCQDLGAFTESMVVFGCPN

Chain of mutant C3M-26 (Arg1303->Gln, Arg1320->Gln) (chain, as listed by the source, stated change not applied, chain 1 of 2): as the sequence (chain, as listed by the source, stated change not applied, chain 1 of 2) above
Chain of mutant C3M-26 (Arg1303->Gln, Arg1320->Gln) (chain, as listed by the source, stated change not applied, chain 2 of 2): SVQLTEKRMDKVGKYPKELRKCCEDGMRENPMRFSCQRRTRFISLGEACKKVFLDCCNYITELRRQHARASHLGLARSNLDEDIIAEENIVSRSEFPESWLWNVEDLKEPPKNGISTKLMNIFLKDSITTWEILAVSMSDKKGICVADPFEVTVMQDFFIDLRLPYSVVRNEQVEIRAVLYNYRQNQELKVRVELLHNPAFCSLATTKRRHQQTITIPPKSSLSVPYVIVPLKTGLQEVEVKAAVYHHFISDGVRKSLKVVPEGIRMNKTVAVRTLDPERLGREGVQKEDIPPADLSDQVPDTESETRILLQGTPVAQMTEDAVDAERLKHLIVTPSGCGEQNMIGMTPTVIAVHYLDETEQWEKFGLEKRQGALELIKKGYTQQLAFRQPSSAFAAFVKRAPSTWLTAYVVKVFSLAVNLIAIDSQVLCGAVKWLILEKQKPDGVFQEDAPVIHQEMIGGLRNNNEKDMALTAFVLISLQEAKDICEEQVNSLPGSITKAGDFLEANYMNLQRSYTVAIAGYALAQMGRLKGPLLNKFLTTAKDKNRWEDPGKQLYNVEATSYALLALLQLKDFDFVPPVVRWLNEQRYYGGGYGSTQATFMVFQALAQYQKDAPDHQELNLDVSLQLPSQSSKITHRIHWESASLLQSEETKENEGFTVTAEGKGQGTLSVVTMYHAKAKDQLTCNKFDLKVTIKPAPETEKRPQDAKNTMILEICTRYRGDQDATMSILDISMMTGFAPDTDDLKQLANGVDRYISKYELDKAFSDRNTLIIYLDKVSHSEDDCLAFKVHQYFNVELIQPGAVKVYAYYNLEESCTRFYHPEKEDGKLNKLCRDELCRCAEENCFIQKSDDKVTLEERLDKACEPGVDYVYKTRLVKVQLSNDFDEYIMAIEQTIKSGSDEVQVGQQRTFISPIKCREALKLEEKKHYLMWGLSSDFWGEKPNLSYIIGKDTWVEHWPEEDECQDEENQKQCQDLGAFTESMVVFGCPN
Chain of mutant C3M-51 (Arg1320->Gln) (chain, as listed by the source, stated change not applied, chain 1 of 2): as the sequence (chain, as listed by the source, stated change not applied, chain 1 of 2) above
Chain of mutant C3M-51 (Arg1320->Gln) (chain, as listed by the source, stated change not applied, chain 2 of 2): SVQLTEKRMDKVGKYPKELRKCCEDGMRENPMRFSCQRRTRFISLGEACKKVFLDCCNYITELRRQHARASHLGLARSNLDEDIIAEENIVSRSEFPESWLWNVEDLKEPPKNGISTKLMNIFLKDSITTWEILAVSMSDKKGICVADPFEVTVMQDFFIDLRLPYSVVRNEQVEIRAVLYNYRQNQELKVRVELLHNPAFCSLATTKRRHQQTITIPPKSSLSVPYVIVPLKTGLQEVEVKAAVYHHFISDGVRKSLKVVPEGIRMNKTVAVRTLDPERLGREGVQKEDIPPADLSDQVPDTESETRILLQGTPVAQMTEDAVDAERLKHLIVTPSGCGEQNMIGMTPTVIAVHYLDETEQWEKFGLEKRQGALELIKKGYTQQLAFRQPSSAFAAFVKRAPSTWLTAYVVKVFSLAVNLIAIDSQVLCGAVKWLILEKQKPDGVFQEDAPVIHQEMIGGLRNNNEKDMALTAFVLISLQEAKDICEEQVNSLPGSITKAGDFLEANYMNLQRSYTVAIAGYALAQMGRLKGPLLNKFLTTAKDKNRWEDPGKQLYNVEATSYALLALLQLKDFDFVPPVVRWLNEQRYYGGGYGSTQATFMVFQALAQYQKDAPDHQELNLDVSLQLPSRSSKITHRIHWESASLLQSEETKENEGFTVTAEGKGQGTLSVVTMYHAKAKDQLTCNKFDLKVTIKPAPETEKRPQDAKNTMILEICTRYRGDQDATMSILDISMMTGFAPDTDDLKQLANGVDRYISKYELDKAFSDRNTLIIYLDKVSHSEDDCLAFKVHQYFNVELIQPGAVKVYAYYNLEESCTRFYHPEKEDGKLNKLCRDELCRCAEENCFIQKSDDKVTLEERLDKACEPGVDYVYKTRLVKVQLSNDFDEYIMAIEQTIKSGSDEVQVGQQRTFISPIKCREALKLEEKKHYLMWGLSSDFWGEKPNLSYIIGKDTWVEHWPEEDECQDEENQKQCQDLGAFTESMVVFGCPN

B1: factor I (protein)
chain: KVTYTSQEDLVEKKCLAKKYTHLSCDKVFCQPWQRCIEGTCVCKLPYQCPKNGTAVCATNRRSFPTYCQQKSLECLHPGTKFLNNGTCTAEGKFSVSLKHGNTDSEGIVEVKLVDQDKTMFICKSSWSMREANVACLDLGFQQGADTQRRFKLSDLSINSTECLHVHCRGLETSLAECTFTKRRTMGYQDFADVVCYTQKADSPMDDFFQCVNGKYISQMKACDGINDCGDQSDELCCKACQGKGFHCKSGVCIPSQYQCNGEVDCITGEDEVGCAGFASVTQEETEILTADMDAERRRIKSLLPKLSCGVKNRMHIRRKRIVGGKRAQLGDLPWQVAIKDASGITCGGIYIGGCWILTAAHCLRASKTHRYQIWTTVVDWIHPDLKRIVIEYVDRIIFHENYNAGTYQNDIALIEMKKDGNKKDCELPRSIPACVPWSPYLFQPNDTCIVSGWGREKDNERVFSLQWGEVKLISNCSKFYGNRFYEKEMECAGTYDGSIDACKGDSGGPLVCMDANNVTYVWGVVSWGENCGKPEFPGVYTKVANYFDWISYHVGRPFISQYNV
Take B1: the “Factor I-mediated cleavage at position 1303 (35S label, SDS-PAGE, autoradiography)” value was “cleavage occurs in the order: arg(R)>tyr(Y)>cys(C) and trp(W)>gln(Q)>gly(G) and glu(E)” in data set [1]; “cleavage occurs in the order: arg(R)>tyr(Y)>cys(C) and trp(W)>gln(Q)>gly(G) and glu(E)” in data set [2]; “cleavage occurs in the order: arg(R)>tyr(Y)>cys(C) and trp(W)>gln(Q)>gly(G) and glu(E)” in [3]; “cleavage occurs in the order: arg(R)>tyr(Y)>cys(C) and trp(W)>gln(Q)>gly(G) and glu(E)” in data set [5]; “cleavage occurs in the order: arg(R)>tyr(Y)>cys(C) and trp(W)>gln(Q)>gly(G) and glu(E)” in data set [6]; “cleavage occurs in the order: arg(R)>tyr(Y)>cys(C) and trp(W)>gln(Q)>gly(G) and glu(E)” in data set [7]. For the same protein, the “Factor I-mediated cleavage at position 1303 (35S label, SDS-PAGE, autoradiography)” value in data set [8] is “cleavage occurs in the order: arg(R)>tyr(Y)>cys(C) and trp(W)>gln(Q)>gly(G) and glu(E)”. Also, in [4], the “cleavage of the C3b product by factors H and I (immunoprecipitation, western blot)” value was “the C3b product is further cleaved by endogenous enzymes in 1-B or added factors H and I in 1-D. The 43 kDa band indicates cleavage at Arg1320, and the 68 kDa band (visible in longer exposures) indicates cleavage at Arg1303”. The “cleavage of the C3b-like product by factors H and I (immunoprecipitation, western blot)” value is “the absence of a 43 kDa band indicates that it is not cleaved at the mutated Gln1320” in data set [6]; “It was also very resistant to the additional factors H and I (3-D) in comparison with the unmutated C3 (1) and other mutants (2 and 4)” in data set [8]; “no 68 kDa band was present, showing that this mutant is resistant to cleavage at the mutated Gln1303” in data set [9].
